Laboratory results as given in article PMC7948927.

Legend:
Assay in all cases: MST
OGG1 WT (Homo sapiens) = OGG1 WT (Homo sapiens) (UniProt O15527); settings: N at position 11 of strand 1 = THF (tetrahydrofuran abasic site analog), opposite C; MST: 100 nM labeled duplex, 0.0185-3.28 uM protein, 10 mM Na phosphate pH 7.5, 7% glycerol; temperature not stated
[1] = biological target: OGG1 R161W R161W (Homo sapiens) (UniProt O15527); settings: saturation not reached; N at position 11 of strand 1 = THF (tetrahydrofuran abasic site analog), opposite C; MST: 100 nM labeled duplex, 0.0185-3.28 uM protein, 10 mM Na phosphate pH 7.5, 7% glycerol; temperature not stated
[2] = biological target: OGG1 I145M I145M (Homo sapiens) (UniProt O15527); settings: saturation not reached; N at position 11 of strand 1 = THF (tetrahydrofuran abasic site analog), opposite C; MST: 100 nM labeled duplex, 0.0185-3.28 uM protein, 10 mM Na phosphate pH 7.5, 7% glycerol; temperature not stated
[3] = biological target: OGG1 S292N S292N (Homo sapiens) (UniProt O15527); settings: saturation not reached; N at position 11 of strand 1 = THF (tetrahydrofuran abasic site analog), opposite C; MST: 100 nM labeled duplex, 0.0185-3.28 uM protein, 10 mM Na phosphate pH 7.5, 7% glycerol; temperature not stated
OGG1 S292N S292N (Homo sapiens), sequence (O15527 whole entry S292N): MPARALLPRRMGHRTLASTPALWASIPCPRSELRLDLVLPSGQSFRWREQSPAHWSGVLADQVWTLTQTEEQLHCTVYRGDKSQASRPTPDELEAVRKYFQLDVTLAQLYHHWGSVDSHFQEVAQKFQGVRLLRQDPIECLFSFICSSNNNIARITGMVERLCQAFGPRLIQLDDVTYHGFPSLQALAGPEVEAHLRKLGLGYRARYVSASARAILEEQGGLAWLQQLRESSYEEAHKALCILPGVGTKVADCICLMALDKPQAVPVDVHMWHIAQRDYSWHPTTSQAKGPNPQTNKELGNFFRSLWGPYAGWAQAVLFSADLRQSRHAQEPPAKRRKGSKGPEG

OGG1 I145M I145M (Homo sapiens), sequence (O15527 whole entry I145M): as the sequence (O15527 whole entry S292N) above, with I145M, N292S counted along it
OGG1 WT (Homo sapiens), sequence (O15527 whole entry): as the sequence (O15527 whole entry S292N) above, with N292S counted along it
OGG1 R161W R161W (Homo sapiens), sequence (O15527 whole entry R161W): as the sequence (O15527 whole entry S292N) above, with R161W, N292S counted along it

## CTCTCCCTTCNCTCCTTTCCTCT / AGAGGAAAGGAGCGAAGGGAGAG [THF:C duplex]
OGG1 WT (Homo sapiens)
  Kd: 140 nM
[1]
  Kd: 1060 nM
[2]
  Kd: 900 nM
[3]
  Kd: 1390 nM
